Here are results for 27 molecules from patent US20260250320A1, “LIPIDATED PEPTIDE INHIBITORS OF INTERLEUKIN-23 RECEPTOR” (Janssen Pharmaceutica NV, priority 2023, published 2026).

*1 amine or outer side, *2 acyl side, *3 side chain or, on linkers, in order; H or OH if unused. Bridges are numbered along the chain shown (N, C = ends). Primed or numbered codes have the meaning given here. Where no end group is shown, it is not given here. Side-chain parts run from the residue outwards. [ ]: non-standard residue; d: D form. K(d) = (2R)-2-(4-((5-amino-5-carboxypentyl)amino)-4-oxobutanamido)-3-carboxy-N,N,N-trimethylpropan-1-aminium, C[N+](C)(C)C[C@@H](CC(=O)[*:3])NC(=O)CCC(=O)NCCCC[C@H](N[*:1])C(=O)[*:2]; TMAPF = 5-(4-(2-amino-2-carboxyethyl)phenoxy)-N,N,N-trimethylpentan-1-aminium, C[N+](C)(C)CCCCCOc1ccc(C[C@H](N[*:1])C(=O)[*:2])cc1; code d″ = lysine side-chain amide of a carnitine-succinyl group ((2R)-3-carboxy-N,N,N-trimethylpropan-1-aminium amide; PEG2′ = PEG2 spacer unit (not further defined); Trp(7-Me) = Cc1cccc2c(C[C@H](N)C(=O)O)c[nH]c12; γGlu = O=C(O)[C@H](CCC(=O)[*:2])N[*:1]; 2Nal = N[C@@H](Cc1ccc2ccccc2c1)C(=O)O; AEF = NCCOc1ccc(C[C@H](N)C(=O)O)cc1; 3Pal = N[C@@H](Cc1cccnc1)C(=O)O; succiniccarn = not defined here; NMeK = CN[C@@H](CCCCN)C(=O)O; NMecPEG3a = not defined here; Pen = CC(C)(S)[C@H](N)C(=O)O; NMeC18OH = not defined here; PEG2(3) = not defined here; 5cpaCO = not defined here; PEG12′ = not defined here; PEG2″ = PEG2 spacer unit; Thp = NC1(C(=O)O)CCOCC1; Sar = CNCC(=O)O A value given as a limit tells only on which side of the number the result lay.

The labels stand for the following.
T1: interleukin-23 receptor (IL-23R) (UniProt Q5VWK5 24-629, limits assumed)
T1 sequence (looked up): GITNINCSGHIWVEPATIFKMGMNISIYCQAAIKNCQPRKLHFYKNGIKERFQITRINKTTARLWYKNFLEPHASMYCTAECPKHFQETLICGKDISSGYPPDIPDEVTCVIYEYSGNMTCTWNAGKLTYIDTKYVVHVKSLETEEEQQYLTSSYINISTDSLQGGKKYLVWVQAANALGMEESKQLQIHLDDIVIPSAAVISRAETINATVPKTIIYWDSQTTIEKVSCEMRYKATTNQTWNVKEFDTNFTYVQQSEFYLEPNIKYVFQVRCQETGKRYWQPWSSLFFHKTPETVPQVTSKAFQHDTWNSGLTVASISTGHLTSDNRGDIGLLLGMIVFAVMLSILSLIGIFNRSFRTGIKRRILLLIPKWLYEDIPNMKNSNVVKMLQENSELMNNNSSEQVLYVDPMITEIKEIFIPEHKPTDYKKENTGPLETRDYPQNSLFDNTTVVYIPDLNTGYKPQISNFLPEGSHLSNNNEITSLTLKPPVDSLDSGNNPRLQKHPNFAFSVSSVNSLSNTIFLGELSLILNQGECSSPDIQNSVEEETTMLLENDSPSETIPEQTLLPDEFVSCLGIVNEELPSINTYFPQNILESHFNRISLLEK

B1: SEQ ID NO: 73 (peptide)
peptide: [dR][Pen]K([PEG2″-PEG2″-γGlu-C18OH])T[Trp(7-Me)]K(Ac)[Pen][AEF][2Nal][Thp]EN[3Pal][Sar]-NH2
modifications: disulfide 2-7 (inferred); not fully specified (N-terminus); printed as 5cpaCO-r-Pen(3)-K(PEG2PEG2gEC18OH)-T-7MeW-K(Ac)-Pen(3)-AEF-2Nal-THP-E-N-3Pya-Sar-CONH2
B2: SEQ ID NO: 77 (peptide)
peptide: XNTXXXXXXKNXX
modifications: 5cpaCO-Pen(3)-N-T-7MeW-K(Ac)-Pen(3)-AEF-2Nal-THP-K(PEG2PEG2gEC18OH)-N-3Pya-Sar-CONH2
B3: SEQ ID NO: 79 (peptide)
peptide: Ac-[dR][Pen]NT[Trp(7-Me)]K([PEG2′-PEG2′-γGlu-C18OH])[Pen][AEF][2Nal][Thp]K(NMecPEG3a)N[3Pal][Sar]-NH2
modifications: disulfide 2-7 (inferred); reading uncertain; also: printed as MeCO-r-Pen(3)-N-T-7MeW-K(PEG2PEG2gEC18OH)-Pen(3)-AEF-2Nal-THP-K(NMecPEG3a)-N-3Pya-Sar-CONH2
B4: SEQ ID NO: 80 (peptide)
peptide: Ac-[dR][Pen]NT[Trp(7-Me)]K(Ac)[Pen][AEF][2Nal][Thp]EN[3Pal][NMeK]([PEG2′-NMePEG2-NMegE-NMeC18OH])-NH2
modifications: disulfide 2-7 (inferred); reading uncertain
B5: SEQ ID NO: 86 (peptide)
peptide: XNTXKXXXXKNXX
modifications: MeCO-Pen(3)-N-T-7MeW-K(NMecPEG3a)-Pen(3)-AEF-2Nal-THP-K(PEG2PEG2gEC18OH)-N-3Pya-Sar-CONH2
B6: SEQ ID NO: 52 (peptide)
peptide: Ac-[dR][Pen]NT[Trp(7-Me)]K(code d″)[Pen][AEF][2Nal][Thp]EN[3Pal][Sar]K([PEG2″-PEG2″-γGlu-C18OH])-NH2
modifications: disulfide 2-7 (inferred)
B7: SEQ ID NO: 85 (peptide)
peptide: Ac-[Pen]NT[Trp(7-Me)]K(Ac)[Pen][TMAPF][2Nal][Thp]K([PEG2′-PEG2′-γGlu-C18OH])N[3Pal][Sar]-NH2
modifications: disulfide 1-6 (inferred)
B8: SEQ ID NO: 71 (peptide)
peptide: [dR][Pen]NT[Trp(7-Me)]K([PEG2″-PEG2″-C18OH])[Pen][AEF][2Nal][Thp]EN[3Pal][Sar]-NH2
modifications: disulfide 2-7 (inferred); not fully specified (N-terminus); printed as 5cpaCO-r-Pen(3)-N-T-7MeW-K(PEG2PEG2C18OH)-Pen(3)-AEF-2Nal-THP-E-N-3Pya-Sar-CONH2
B9: SEQ ID NO: 59 (peptide)
peptide: Ac-[dR][Pen]NT[Trp(7-Me)]K([PEG2″-PEG2″-γGlu-C18OH])[Pen][AEF][2Nal][Thp]EN[3Pal][Sar]-NH2
modifications: disulfide 2-7
B10: SEQ ID NO: 54 (peptide)
peptide: succiniccarn-[dR][Pen]NT[Trp(7-Me)]K(Ac)[Pen][AEF][2Nal][Thp]EN[3Pal][Sar]K([PEG2″-PEG2″-γGlu-C18OH])-NH2
modifications: disulfide 2-7 (inferred); reading uncertain; also: printed as succiniccarn-r-Pen(3)-N-T-7MeW-K(Ac)-Pen(3)-AEF-2Nal-THP-E-N-3Pya-Sar-K(PEG2PEG2gEC18OH)-CONH2
B11: SEQ ID NO: 53 (peptide)
peptide: Ac-[dR][Pen]K(code d″)T[Trp(7-Me)]K(Ac)[Pen][AEF][2Nal][Thp]EN[3Pal][Sar]K([PEG2″-PEG2″-γGlu-C18OH])-NH2
modifications: disulfide 2-7 (inferred)
B12: SEQ ID NO: 162 (peptide)
peptide: XNTXXXXXXKNXX
modifications: MeCO-Pen(3)-N-T-7MeW-K(Ac)-Pen(3)-AEF-2Nal-THP-K(PEG12gEC20OH)-N-3Pya-Sar-CONH2
B13: SEQ ID NO: 55 (peptide)
peptide: [dR][Pen]K([PEG2″-PEG2″-γGlu-C18OH])T[Trp(7-Me)]K(Ac)[Pen][AEF][2Nal][Thp]EN[3Pal][Sar]-NH2
modifications: disulfide 2-7 (inferred); not fully specified (N-terminus); printed as cPEG3aCO-r-Pen(3)-K(PEG2PEG2gEC18OH)-T-7MeW-K(Ac)-Pen(3)-AEF-2Nal-THP-E-N-3Pya-Sar-CONH2
B14: SEQ ID NO: 78 (peptide)
peptide: XNTXXXXXXKNXX
modifications: cPEG3aCO-Pen(3)-N-T-7MeW-K(Ac)-Pen(3)-AEF-2Nal-THP-K(PEG2PEG2gEC18OH)-N-3Pya-Sar-CONH2
B15: SEQ ID NO: 146 (peptide)
peptide: Ac-[dR][Pen]NT[Trp(7-Me)]K(Ac)[Pen][AEF][2Nal][Thp]K([PEG12′-γGlu-C18OH])N[3Pal][Sar]-NH2
modifications: disulfide 2-7 (inferred)
B16: SEQ ID NO: 160 (peptide)
peptide: cPEG3aCO-[dR][Pen]NT[Trp(7-Me)]K(Ac)[Pen][AEF][2Nal][Thp]EN[3Pal][Sar]K([PEG2(3)-PEG2(3)-γGlu-C18OH])-NH2
modifications: disulfide 2-7 (inferred)
B17: SEQ ID NO: 58 (peptide)
peptide: Ac-[dK]([PEG2″-PEG2″-γGlu-C18OH])[Pen]NT[Trp(7-Me)]K(Ac)[Pen][AEF][2Nal][Thp]EN[3Pal][Sar]-NH2
modifications: disulfide 2-7
B18: SEQ ID NO: 81 (peptide)
peptide: 5cpaCO-[dR][Pen]NT[Trp(7-Me)]K(Ac)[Pen][AEF][2Nal][Thp]EN[3Pal][Sar]K([PEG2′-PEG2′-γGlu-C18OH])-NH2
modifications: disulfide 2-7 (inferred); reading uncertain; also: printed as 5cpaCO-r-Pen(3)-N-T-7MeW-K(Ac)-Pen(3)-AEF-2Nal-THP-E-N-3Pya-Sar-K(PEG2PEG2gEC18OH)-CONH2
B19: SEQ ID NO: 72 (peptide)
peptide: [dR][Pen]NT[Trp(7-Me)]K([PEG2″-PEG2″-C18OH])[Pen][AEF][2Nal][Thp]EN[3Pal][Sar]-NH2
modifications: disulfide 2-7 (inferred); not fully specified (N-terminus); printed as cPEG3aCO-r-Pen(3)-N-T-7MeW-K(PEG2PEG2C18OH)-Pen(3)-AEF-2Nal-THP-E-N-3Pya-Sar-CONH2
B20: SEQ ID NO: 147 (peptide)
peptide: XNTXXXXXXENXX
modifications: not fully specified; MeCO-Pen(3)-N-T-7MeW-K(Ac)-Pen(3)-AEF-2Nal-THP-E-N-3Pya-Sar-CO(PEG2PEG2gEC18OH)
B21: SEQ ID NO: 66 (peptide)
peptide: Ac-[dR][Pen]K([PEG2″-PEG2″-γGlu-C18OH])T[Trp(7-Me)]K(Ac)[Pen][AEF][2Nal][Thp]EN[3Pal][Sar]
modifications: disulfide 2-7 (inferred); not fully specified (C-terminus); printed as MeCO-r-Pen(3)-K(PEG2PEG2gEC18OH)-T-7MeW-K(Ac)-Pen(3)-AEF-2Nal-THP-E-N-3Pya-Sar-CONH(PEG3a)
B22: SEQ ID NO: 64 (peptide)
peptide: XNTXXXXXXKNXX
modifications: not fully specified; MeCO-Pen(3)-N-T-7MeW-K(Ac)-Pen(3)-AEF-2Nal-THP-K(PEG2PEG2gEC18OH)-N-3Pya-Sar-CONH(PEG3a)
B23: SEQ ID NO: 65 (peptide)
peptide: Ac-[dR][Pen]NT[Trp(7-Me)]K([PEG2″-PEG2″-γGlu-C18OH])[Pen][AEF][2Nal][Thp]EN[3Pal][Sar]
modifications: disulfide 2-7 (inferred); not fully specified (C-terminus); printed as MeCO-r-Pen(3)-N-T-7MeW-K(PEG2PEG2gEC18OH)-Pen(3)-AEF-2Nal-THP-E-N-3Pya-Sar-CONH(PEG3a)
B24: SEQ ID NO: 10 (peptide)
peptide: Ac-[dR][Pen][K(d)]T[Trp(7-Me)]K(Ac)[Pen][AEF][2Nal][Thp]EN[3Pal][Sar]-NH2
modifications: disulfide 2-7 (inferred); not fully specified (residue 8); printed as MeCO-r-Pen(3)-K(d)-T-7MeW-K(Ac)-Pen(3)-AEF(PEG2PEG2gEC18OH)-2Nal-THP-E-N-3Pya-Sar-CONH2
B25: SEQ ID NO: 1 (peptide)
peptide: XNTXXXXXXENXXK
modifications: MeCO-Pen(3)-N-T-7MeW-K(Ac)-Pen(3)-AEF-2Nal-THP-E-N-3Pya-Sar-K(Sar-S-Sar-S-Sar-S-Sar-C14)-CONH2
B26: SEQ ID NO: 5 (peptide)
peptide: RXNTWXXXXXENXX
modifications: C12gEPEG2PEG2CO-r-Abu(1)-N-T-W-K(Ac)-aMeC(1)-AEF-2Nal-THP-E-N-3Pya-Sar-CONH2
B27: SEQ ID NO: 12 (peptide)
peptide: Ac-[dR][Pen]K([PEG2(3)-PEG2(3)-γGlu-C18OH])T[Trp(7-Me)]K(Ac)[Pen][AEF][2Nal][Thp][K(d)]N[3Pal][Sar]-NH2
modifications: disulfide 2-7 (inferred)

For one assay, the target named is T1, interleukin-23 receptor (IL-23R). Briefly: cell-based or functional assay.
Regarding B1, the “PBMC pSTAT3 IC50” value was < 0.5 nM. Still for that read-out and setting: as for B2, the figure is < 0.5 nM; as for B3, < 0.5 nM; as for B4, < 0.5 nM.

Consider B5, for which the “PBMC pSTAT3 IC50” value is < 0.5 nM. Regarding B6, the “PBMC pSTAT3 IC50” value is < 0.5 nM. Consider B7, for which the “PBMC pSTAT3 IC50” value is < 0.5 nM. Consider B8, for which the “PBMC pSTAT3 IC50” value was < 0.5 nM. As to B9, the “PBMC pSTAT3 IC50” value was < 0.5 nM.

On to B10, for which the “PBMC pSTAT3 IC50” value was < 0.5 nM. Same read-out and setting: the value for B11 was < 0.5 nM. In the case of B12, the “PBMC pSTAT3 IC50” value was < 0.5 nM.

With B13, the “PBMC pSTAT3 IC50” value is < 0.5 nM.

As to B14, the “PBMC pSTAT3 IC50” value is < 0.5 nM. For B15, the “PBMC pSTAT3 IC50” value was < 0.5 nM. On the same count and under the same terms, as for B16, the figure is < 0.5 nM. On to B17, for which the “PBMC pSTAT3 IC50” value was < 0.5 nM.

For the molecule B18, the “PBMC pSTAT3 IC50” value is < 0.5 nM.

With B19, the “PBMC pSTAT3 IC50” value was < 0.5 nM.

The next assay shares this target. Put plainly: cell-based or functional assay. The source holds these as a separate data set.
B20: the “IC50, IL23R reporter assay” value was ≥ 500 nM. On the same count and under the same terms, as for B21, the figure is ≥ 500 nM. On the same count and under the same terms, as for B22, the figure is ≥ 500 nM; as for B23, ≥ 500 nM; as for B24, < 50 nM. Consider B25, for which the “IC50, IL23R reporter assay” value is < 50 nM. Take B26: the “IC50, IL23R reporter assay” value is < 50 nM.

Regarding B27, the “IC50, IL23R reporter assay” value was < 50 nM.
